Test results: paper PMC5025654

How the values were obtained:
[1] = biological target: TGF-β1 of the porcine enamel matrix (porcine (endogenous in porcine enamel)); experiment: co-elution on RP-HPLC, TGF-β1 quantified by ALP-inducing activity of HPDL cells; amelogenins as purified from enamel (before the in vitro binding); ng of TGF-β1 per mg of amelogenin calculated from standard CF-hTGF-β1 (0.3 ng mL^-1), after dilution correction; complexes formed in vivo
[2] = biological target: carrier-free recombinant human TGF-β1 (human); experiment: in vitro binding, RP-HPLC, TGF-β1 quantified by ALP-inducing activity of HPDL cells; purified amelogenin mixed with CF-hTGF-β1 or rh-latent TGF-β1, fractions from RP-HPLC tested in the ALP-HPDL system; ng per mg of amelogenin calculated from standard CF-hTGF-β1 (0.3 ng mL^-1), after dilution correction; details in the Supplementary Methods
Chain of carrier-free recombinant human TGF-β1 (human) (P01137 279-390): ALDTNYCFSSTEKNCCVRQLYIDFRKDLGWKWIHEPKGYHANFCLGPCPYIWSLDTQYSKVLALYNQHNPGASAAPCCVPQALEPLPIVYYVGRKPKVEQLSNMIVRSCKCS

Chain of TGF-β1 of the porcine enamel matrix (porcine (endogenous in porcine enamel)) (P07200 279-390): as the sequence (P01137 279-390) above

- original TGF-β1, ng against 1 mg of amelogenin [1]: 0.345 ng
- bound TGF-β1, ng against 1 mg of amelogenin [2]: 1.18 ng
B1: P173 amelogenin (natural protein)
chain: MPLPPHPGHPGYINFSYEVLTPLKWYQNMIRHPYTSYGYEPMGGWLHHQIIPVVSQQTPQSHALQPHHHIPMVPAQQPGIPQQPMMPLPGQHSMTPTQHHQPNLPLPAQQPFQPQPVQPQPHQPLQPQSPMHPIQPLLPQPPLPPMFSMQSLLPDLPLEAWPATDKTKREEVD
